Measurements as given in article PMC3571872 (Molecular Biology of the Cell, 2013).
Where a chain is given by its changes, count along the chain named. Names may count otherwise. Square brackets hold non-standard residues; d marks the D form. pS = N[C@@H](COP(=O)(O)O)C(=O)O

B1: Gga2p VHS-GAT-His6 (domain or fragment, yeast, UniProt P38817 1-336, looked up)
chain: MSHPHSHSIYLSELPVRKPQALGNPLLRKIQRACRMSLAEPDLALNLDIADYINEKQGAAPRDAAIALAKLINNRESHVAIFALSLLDVLVKNCGYPFHLQISRKEFLNELVKRFPGHPPLRYSKIQRLILTAIEEWYQTICKHSSYKNDMGYIRDMHRLLKYKGYAFPKISESDLAVLKPSNQLKTASEIQKEQEIAQAAKLEELIRRGKPEDLREANKLMKIMAGFKEDNAVQAKQAISSELNKLKRKADLLNEMLESPDSQNWDNETTQELHSALKVAQPKFQKIIEEEQEDDALVQDLLKFNDTVNQLLEKFNLLKNGDSNAASQIHPSHVS
B2: Phosphopeptide PP2 (peptide)
peptide: Ac-CTNENPF[pS]DPIKQKF-NH2
SMILES: CC[C@H](C)[C@H](NC(=O)[C@@H]1CCCN1C(=O)[C@H](CC(=O)O)NC(=O)[C@H](COP(=O)(O)O)NC(=O)[C@H](Cc1ccccc1)NC(=O)[C@@H]1CCCN1C(=O)[C@H](CC(N)=O)NC(=O)[C@H](CCC(=O)O)NC(=O)[C@H](CC(N)=O)NC(=O)[C@@H](NC(=O)[C@H](CS)NC(C)=O)[C@@H](C)O)C(=O)N[C@@H](CCCCN)C(=O)N[C@@H](CCC(N)=O)C(=O)N[C@@H](CCCCN)C(=O)N[C@@H](Cc1ccccc1)C(N)=O
B3: S780D GST-Kex2p C-tail fusion protein (domain or fragment, yeast, UniProt P13134 700-814, looked up)
chain: KSRRRIRRSRAETYEFDIIDTDSEYDSTLDNGTSGITEPEEVEDFDFDLSDEDHLASLSSSENGDAEHTIDSVLTNENPFDDPIKQKFPNDANAESASNKLQELQPDVPPSSGRS
B4: WT GST-Kex2p C-tail fusion protein (domain or fragment, yeast, UniProt P13134 700-814, looked up)
chain: B3 chain with D81S

Legend:
[1] = target: S780A GST-Kex2p C-tail fusion protein (yeast) (UniProt P13134); test: ITC
[2] = target: S780A GST-Kex2p C-tail fusion protein (yeast) (UniProt P13134); test: pull-down
[3] = target: B3; test: pull-down
Gga2p VHS-GAT-His6 [4] = target: B1; test: pull-down
Gga2p VHS-GAT-His6 [5] = target: B1; test: ITC

| Molecule | binding result (Gga2p VHS-GAT-His6 [4]) | Kd (Gga2p VHS-GAT-His6 [5]) | further results |
| --- | --- | --- | --- |
| Gga2p VHS-GAT-His6 (from UniProt P38817 1-336) (domain or fragment) |  |  | Kd [1]: 400 µM; fold lower binding than the WT tail [2]: 2 fold; t1/2 of dissociation [2]: 40 min |
| B1 |  |  | fold higher binding than the WT tail [3]: 2 fold |
| B2 | binds |  |  |
| B3 |  | 6.6 µM |  |
| B4 |  | 10 µM |  |
| Ac-CLTNENPFSDPIKQKF-NH2 [Nonphosphorylated peptide NPP] | binds |  |  |
